Where two headings read alike, the source gives them in different places.
Key:
Assay in all cases: radioligand competition, purified MHC
HLA-A*01:01 (human) = target: HLA-A*01:01 (human)
HLA-B*51:01 (human) = target: HLA-B*51:01 (human)
HLA-A*26:01 (human) = target: HLA-A*26:01 (human)
HLA-B*07:02 (human) = target: HLA-B*07:02 (human)
HLA-B*44:03 (human) = target: HLA-B*44:03 (human)
HLA-B*18:01 (human) = target: HLA-B*18:01 (human)
HLA-B*15:01 (human) = target: HLA-B*15:01 (human)
HLA-B*44:02 (human) = target: HLA-B*44:02 (human)
HLA-A*02:01 (human) = target: HLA-A*02:01 (human)
[1] = remark: other sources report otherwise

Binder | IC50 (HLA-A*01:01 (human); [1]) | IC50 (HLA-B*51:01 (human); [1]) | IC50 (HLA-A*26:01 (human); [1]) | IC50 (HLA-B*07:02 (human)) | IC50 (HLA-B*44:03 (human); [1]) | IC50 (HLA-B*18:01 (human); [1]) | IC50 (HLA-B*15:01 (human); [1]) | IC50 (HLA-B*44:02 (human); [1]) | IC50 (HLA-A*01:01 (human)) | IC50 (HLA-B*51:01 (human)) | IC50 (HLA-A*02:01 (human)) | IC50 (HLA-A*26:01 (human)) | IC50 (HLA-B*18:01 (human)) | IC50 (HLA-B*15:01 (human)) | IC50 (HLA-B*44:03 (human)) | IC50 (HLA-B*44:02 (human)) | IC50 (HLA-A*02:01 (human); [1])
FGDDTVIEV (modifications not checked) [… (SEQ ID NO: 23)] | > 70 µM | 45.7 µM | > 70 µM | > 70 µM | > 70 µM | > 70 µM | 2.38 µM | > 70 µM |  |  |  |  |  |  |  |  | 
SEFSSLPSY (modifications not checked) [… (SEQ ID NO: 27)] |  |  |  | > 70 µM |  |  |  |  | 39.8 µM | > 70 µM | > 70 µM | 0.875 µM | 0.00037 µM | 0.0069 µM |  |  | 
VGYLQPRTF (modifications not checked) [… (SEQ ID NO: 39)] |  |  |  | > 70 µM |  |  |  |  | > 70 µM |  | > 70 µM | > 70 µM | 0.707 µM | 0.777 µM | > 70 µM | > 70 µM | 
DEFVVVTV (modifications not checked) [DEFVVVTV (SEQ ID NO: 11)] |  |  |  | 52.8 µM |  |  |  |  | > 70 µM | 12.8 µM | 13 µM | 9.55 µM | < 0.0005 µM | 2.05 µM | 1.28 µM | 2.79 µM | 
APHGHVMVEL (modifications not checked) [… (SEQ ID NO: 14)] |  |  |  | 0.0061 µM |  |  |  |  | > 70 µM | > 70 µM | > 70 µM | > 70 µM | > 70 µM | > 70 µM | > 70 µM | > 70 µM | 
ELPDEFVVV (modifications not checked) [… (SEQ ID NO: 12)] |  |  |  | > 70 µM |  |  |  |  | > 70 µM | > 70 µM | 0.46 µM | 6.86 µM | > 70 µM | > 70 µM | > 70 µM | > 70 µM | 
EIKESVQTF (modifications not checked) [… (SEQ ID NO: 15)] |  |  |  | > 70 µM |  |  |  |  | > 70 µM | > 70 µM | > 70 µM | 0.0078 µM | > 70 µM | 4.93 µM | > 70 µM | 37.2 µM | 
KNIDGYFKIY (modifications not checked) [… (SEQ ID NO: 36)] |  |  |  | > 70 µM |  |  |  |  | > 70 µM | > 70 µM | 11.8 µM | > 70 µM | > 70 µM | 1.45 µM | > 70 µM | > 70 µM | 
APRITFGGP (modifications not checked) [… (SEQ ID NO: 42)] |  |  |  | 0.059 µM |  |  |  |  | > 70 µM | > 70 µM | 0.893 µM | > 70 µM | > 70 µM | > 70 µM | > 70 µM | > 70 µM | 
ELPDEFVVVTV (modifications not checked) [… (SEQ ID NO: 8)] |  |  |  | > 70 µM |  |  |  |  | > 70 µM | > 70 µM | 0.0016 µM | 0.072 µM | 1.13 µM | 35.1 µM | > 70 µM | > 70 µM | 
KAFQLTPIAV (modifications not checked) [… (SEQ ID NO: 13)] |  |  |  | 8.6 µM |  |  |  |  | > 70 µM | 38.7 µM | 0.0078 µM | > 70 µM | 3.87 µM | 1.2 µM | 16.4 µM | > 70 µM | 
GLITLSYHL (modifications not checked) [… (SEQ ID NO: 5)] |  |  |  | 14.3 µM |  |  |  |  |  |  | < 0.0005 µM | 40.3 µM |  | 1.5 µM | 24.3 µM | 26 µM | 
LEDKAFQL (modifications not checked) [LEDKAFQL (SEQ ID NO: 10)] |  |  |  |  |  |  |  |  |  |  | 3.89 µM |  | 0.035 µM | 14.7 µM | 0.208 µM | 35.4 µM | 
YLNSTNVTI (modifications not checked) [… (SEQ ID NO: 24)] |  |  |  | 7.93 µM |  |  |  |  |  | 3.62 µM | 0.012 µM |  |  | 0.0012 µM | 49.6 µM |  | 
FASEAARVV (modifications not checked) [… (SEQ ID NO: 17)] |  |  |  | 8.55 µM |  |  |  |  | > 70 µM | 0.207 µM | 0.495 µM | 0.734 µM | 49.5 µM | 2.55 µM | > 70 µM | > 70 µM | 
KRVDWTIEY (modifications not checked) [… (SEQ ID NO: 29)] | > 70 µM | 22.7 µM | > 70 µM | > 70 µM | > 70 µM | > 70 µM | 0.356 µM | > 70 µM |  |  |  |  |  |  |  |  | > 70 µM
FAVDAAKAY (modifications not checked) [… (SEQ ID NO: 28)] |  |  |  | > 70 µM |  |  |  |  | > 70 µM | > 70 µM | > 70 µM | 0.0067 µM | 35.9 µM | 0.0027 µM | > 70 µM | > 70 µM | 
MLLGSMLYM (modifications not checked) [… (SEQ ID NO: 4)] |  |  |  |  |  |  |  |  |  | 7.87 µM | < 0.0005 µM | 45.5 µM |  | 0.0011 µM |  | 18.9 µM | 
SLEDKAFQL (modifications not checked) [… (SEQ ID NO: 7)] |  |  |  |  |  |  |  |  |  |  | 0.02 µM |  |  | 1.58 µM |  |  | 
IRQEEVQEL (modifications not checked) [… (SEQ ID NO: 31)] |  |  |  | > 70 µM |  |  |  |  | > 70 µM | > 70 µM | > 70 µM | > 70 µM | > 70 µM | > 70 µM | > 70 µM | > 70 µM | 
EEFEPSTQYEY (modifications not checked) [… (SEQ ID NO: 20)] |  |  |  | > 70 µM |  |  |  |  | > 70 µM | > 70 µM | > 70 µM | 18.8 µM | 0.0011 µM | 0.078 µM | 0.00041 µM | 0.05 µM | 
NATNVVIKV (modifications not checked) [… (SEQ ID NO: 37)] |  |  |  | > 70 µM |  |  |  |  | > 70 µM | 0.536 µM |  | 43.4 µM | > 70 µM | > 70 µM | 8.11 µM | > 70 µM | 
LATNNLVVM (modifications not checked) [… (SEQ ID NO: 16)] |  |  |  | 0.055 µM |  |  |  |  | > 70 µM | 32.7 µM | > 70 µM | > 70 µM | > 70 µM | 0.315 µM | 46.5 µM | 40.2 µM | 
STSAFVETV (modifications not checked) [… (SEQ ID NO: 19)] |  |  |  | 8.86 µM |  |  |  |  | 12.7 µM | > 70 µM | 0.026 µM | 12.1 µM | > 70 µM | 10.4 µM | > 70 µM | > 70 µM | 
HADQLTPTW (modifications not checked) [… (SEQ ID NO: 35)] |  |  |  |  |  |  |  |  |  |  |  |  | 3.35 µM | 13.4 µM | 1.8 µM | 5.26 µM | 
QLTPTWRVY (modifications not checked) [… (SEQ ID NO: 38)] |  |  |  | > 70 µM |  |  |  |  | > 70 µM | > 70 µM | > 70 µM | > 70 µM | > 70 µM | 0.011 µM | > 70 µM | > 70 µM | 
GPMVLRGLIT (modifications not checked) [… (SEQ ID NO: 6)] |  |  |  |  |  |  |  |  |  |  | 2 µM | 0.884 µM |  | 8.55 µM |  |  | 
